Common to all, as to assay: ITC
The subject of series [1] is IE1-CTD (chromatin-tethering domain peptide);human histone octamer WT (human cytomegalovirus;Homo sapiens).
The test system of series [2] is IE1 full length;human histone octamer WT (human cytomegalovirus (Towne);Homo sapiens).
For series [3], the system named is IE1-CTD (chromatin-tethering domain peptide);human histone octamer WT (human cytomegalovirus;Homo sapiens). This is another data set of the same source.

Like-named read-outs stand apart in the source and are kept apart here.

147-bp Widom 601 (human NCP): the Kd in series [1] came to 2250 nM; in series [2] it was 11300 nM; in series [3], 400 nM.

Source of the values: publication PMC4764553, “Human cytomegalovirus IE1 protein alters the higher-order chromatin structure by targeting the acidic patch of the nucleosome” (eLife, 2016).
